Here are results for eleven molecules from patent publication US20250263468A1 (CELLTRION, published 2025).

Test [1] deals with T1, SARS-CoV-2 virus surface protein (RBD), wild type (SARS-CoV-2, UniProt P0DTC2 319-536). The test is described as follows: BLI (Octet), full IgG against SARS-CoV-2 RBD.
Method: The binding affinity (equilibrium dissociation constant, KD) of each fully human antibody to SARS-CoV-2 RBD was evaluated by biolayer interference (BLI) assay using Octet.
The target in test [2] is SARS-CoV-2 spike D614 (pseudovirus) (SARS-CoV-2, UniProt P0DTC2 14-1273). The test is described as follows: cell-based or functional assay.
Test [3] deals with T1, SARS-CoV-2 virus surface protein (RBD), …. Kind of test: BLI (Octet), full IgG against RBD WT.

B1: antibody No. 81 (fully human antibody, full IgG) (antibody, V domains shown)
VH: QVQLVQSGGGVVQPGRSLRLSCAASGFTFSSFAMHWVRQAPGKGLEWVAVISFDGSNKYYADSVKGQFTISRDNSKNTLYLQMNSLRAEDTAVYYCARGDYYGSGSYYNPSPFFDYWGQGTLVTVSS
VL: not shown
With B1, the Kd in test [1] was determined as 0.0428 nM.

B2: antibody No. 59 (fully human antibody, full IgG) (antibody, V domains shown)
VH: QVQLQESGPGLVKPSETLSLTCTVSGDSISGSSYYWGWIRQPPGKGLEWIGNIFYSGSTYYNPSLKSRVTISVDTPKNQFSLKLSSVTAADTAMYYCARGSRGYYDILTGYSTGGFDYWGQGTLVTVSS
VL: ELQMTQSPATLSVSPGEGATLSCRASQSVSSNLAWYQHKPGQAPRLLIYDASTRATGIPARFSGSGSGTEFTLTISSLQSEDFAVYYCQQYNNWPLTFGGGTKLEIK
With B2, the Kd in test [1] worked out at 0.0496 nM.

B3: antibody No. 32 (fully human antibody, full IgG) (antibody, V domains shown)
VH: EVQLVQSGGGLIQPGGSLRLSCAASEFIVSSNYMTWVRQAPGKGLEWVSIIYPGGSTYYADSVKGRFTISRDNSKNTLYLRMNSLRAEDTAVYYCARDLPLTGTTLDYWGQGTLVTVSS
VL: not shown
As to B3, the “IC50, pseudovirus neutralization” value in test [2] stood at 4.34 ng/mL. In addition, in test [3], binding was characterised by a dissociation constant (Kd) of 0.305 nM, the koff is 0.000193 s⁻¹ and the on-rate constant (kon) stood at 633000 M⁻¹ s⁻¹. The molecule also gave a Kd in test [1] of 0.147 nM.

B4: antibody No. 48 (fully human antibody, full IgG) (antibody, V domains shown)
VH: EVQLVQSGGGLIQPGGSLRLSCAASGFTVSSNYMSWVRQPPGKGLEWVSVIYPGGSTFFADSVQGRFTISRDNSKNTLYLQMNSLRAEDTAVYYCARSYDFLTDYTDAFDIWGQGTMVTVSS
VL: ELELTQPPSVSGAPGQRVTISCTGSSSNIGAGYDVHWYQQLPGTAPKLLIYGNSNRPSGVPDRFSGSKSGTSASLAITGLQAEDEADYYCQSYDSSLSGLWVFGGGTKLTVQ
B4 yielded a Kd in test [1] of 0.184 nM.

B5: antibody No. 53 (fully human antibody, full IgG) (antibody, V domains shown)
VH: EVQLVQSGGGLIQPGGSLRLSCAASGFTVSSNYMSWVRQPPGKGLEWVSVIYPGGSTFFADSVQGRFTISRDNSKNTLYLQMNSLRAEDTAVYYCARSYDFLTDYTDAFDIWGQGTMVTVSS
VL: not shown
As to B5, in test [1], the dissociation constant Kd stood at 3.39 nM.

B6: antibody No. 54 (fully human antibody, full IgG) (antibody, V domains shown)
VH: EVQLLESGGGLVQPGRSLRLSCAASGFNFDDYAMHWVRQAPGKGLEWVSGISWNSGTIGYADSVKGRFIISRDNAKNSLYLQMRSLKPEDTALYYCAKEELGPYSNRWYSSSDGMDVWGQGTTVTVSS
VL: ELVLTQPPSVSGAPGQRVTISCTGSSSNIGAGYDVHWYQQLPGTAPKLLIYGNSNRPSGVPDRFSGSKSGTSASLAITGLQAEDEADYYCQSYDSSLSGVVFGGGTKLTVL
In the case of B6, in test [3], binding was put at a Kd of 0.133 nM, the koff came to 0.000108 s⁻¹ and the on-rate (kon) was 815000 M⁻¹ s⁻¹. For the same molecule, the affinity in test [1], expressed as Kd, was 0.0313 nM.

B7: antibody No. 45 (fully human antibody, full IgG) (antibody, V domains shown)
VH: EVQLVQSGAEVKKPGSSVKVSCKASGGTFSSYDISWVRQAPGQGLEWMGGIIPILGIPNYAQKFQGRVTITADESTSTAYMELSSLRSEDTAVYYCARSRGYSGYGANWYFDLWGRGTLVTVSS
VL: ELVVTQPPSVSGAPGQRVTISCTGSSSNIGAGYDVHWYQQLPGTAPKLLIYGNSNRPSGVPDRFSGSKSGTSASLAITGLQAEDEAEYYCQSYDSSLSGPVFGGGTKLTVL
For B7, in test [1], the Kd is 0.0708 nM.

B8: antibody No. 34 (fully human antibody, full IgG) (antibody, V domains shown)
VH: QVQLVQSGAEVKKPGSSVKVSCKTSGGTFSNYPLTWVRQAPGQGLEWLGGIIPIIGATNYAQKFQGRVTITADESTSTAFMELSSLRSEDTAVYYCARGRGYSGYGAAYYFDYWGQGTLVTVSS
VL: ELELTQPPSVSGAPGQRVTISCTGSSSNIGAGYDVHWYQQLPGTAPKLLIYGNSNRPSGVPDRFSGSKSGTSASLAITGLQAEDEADYYCQSYDSSLSGWVFGGGTKVTVL
B8: the dissociation constant Kd in test [1] was 0.185 nM.

B9: antibody No. 37 (fully human antibody, full IgG) (antibody, V domains shown)
VH: EVQLVQSGAEVKKPGESLKISCRGSGYSFTSHWIAWVRQMPGKGLEWMGIIYPGDSDSRYSPSFQGQVTISADKSISTAYLQWSSLKASDTAIYYCARGPNLYNWFDSWGQGTLVTVSS
VL: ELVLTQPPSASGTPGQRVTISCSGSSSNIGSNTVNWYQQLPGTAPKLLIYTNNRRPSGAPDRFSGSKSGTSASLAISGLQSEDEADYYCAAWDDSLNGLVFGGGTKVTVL
With B9, binding in test [1] was characterised by a dissociation constant (Kd) of 0.057 nM.

B10: antibody No. 61 (fully human antibody, full IgG) (antibody, V domains shown)
VH: EVQLLESGGALVQPGRSLRLSCAASGFTFDDYAMHWVRQGPGKGLEWVSGTTWNSGTIGYADSVKGRFIISRDNAENSLYLQMNSLRPEDTALYYCAKDIGSGDRPDAFHLWGQGTMVTVSS
VL: ELVLTQPPSVSVAPGKTARITCGGNNIGSKSVHWYQQKPGQAPVLVVYDDSDRPSGIPERFSGSNSGNTATLTISRVEAGDEADYYCQVWDSSSDRVVFGGGTKVTVL
Take B10: the dissociation constant (Kd) in test [1] was 0.0226 nM.

B11: antibody No. 33 (fully human antibody, full IgG) (antibody, V domains shown)
VH: EVQLVESGGGVVQPGRSLRLSCAASGLTFSDYGMHWVRQAPGKGLEWVAAISYDGSNKYYADSVKGRFTISRDNSKNTVYLQMNSLRAEDTAVYYCVRDSGLYGSGWSTYQYYAMDVWGQGTTVTVSS
VL: ELVLTQSPSVSVAPGKTARITCGGNNIGSKSVHWYQQKPGQAPVLVVYDDSDRPSGIPERFSGSNSGNTATLTISRVEAGDEADYYCQVWDSSSDHVVFGGGTKVTVL
On to B11, for which the Kd in test [1] was found to be 0.0431 nM.

As a reminder, the Kd is the free concentration of one partner at which half of the binding sites on the other are occupied at equilibrium, for simple one-to-one binding. A high value points to weaker binding. A word on the koff: it is the rate constant with which the complex falls apart. Low readings indicate slow dissociation, high ones fast dissociation. Broadly, the kon is a measure of how fast the partners come together. A higher kon goes with faster complex formation.
